According to publication PMC6021247:

Legend:
[1] = target: rabbit APOBEC3A fused to Cherry (rA3A-Cherry) (rabbit); experiment: FRET or BRET; flow cytometry-based FRET (FRET-FACS); HEK-293T cells 48 hours after co-transfection of a Cherry-fusion and a GFP-fusion plasmid; percentage of FRET+ cells gated on Cherry+ and GFP+ cells
[2] = target: rabbit TRIB3 pseudokinase fused to GFP (rTRIB3-GFP) (rabbit); experiment: as above

- percentage of fluorescent cells in the FRET channel [1]: 19%
- percentage of fluorescent cells in the FRET channel [2]: 11%
Substance: rabbit APOBEC3A fused to Cherry (rA3A-Cherry) (enzyme)
